{"source": "patent US10052364B2", "about": "“Osteocalcin as a treatment for cognitive disorders” (THE TRUSTEES OF COLUMBIA UNIVERSITY IN THE CITY OF NEW YORK, priority 2013, dated 2018)", "molecules": {"B1": {"name": "uncarboxylated osteocalcin: Recombinant osteocalcin bacterially produced, cleaved from the GST subunit; completely undercarboxylated at all three sites (protein, listed as Homo sapiens)", "chain": "MRALTLLALLALAALCIAGQAGAKPSGAESSKGAAFVSKQEGSEVVKRPRRYLYQWLGAPVPYPDPLEPRREVCELNPDCDELADHIGFQEAYRRFYGPV", "modifications": "uncarboxylated", "notes": "Recombinant osteocalcin bacterially produced, cleaved from the GST subunit; completely undercarboxylated at all three sites"}}, "key": {"[1]": {"tested_on": "WT mice", "test": "Contextual Fear Conditioning after acute hippocampal injection", "type": "in vivo, mouse", "settings": "for freezing behavior compared to controls, 24 hours after the initial shocks: 10 ng injected acutely in both hemispheres, n=4 per group", "procedure": "FIG. 11. CREB activation by osteocalcin is functionally relevant. Contextual fear conditioning in 3.5 month old mice injected acutely with 10 ng recombinant uncarboxylated osteocalcin 24 hours prior to context exposure. 3 shocks of 0.55 mA were delivered to mice 1 min apart.\nTo determine whether these acute injections and corresponding activation of the CREB pathway are functionally relevant, Contextual Fear Conditioning (CFC), a hippocampus dependent task that assesses long term memory, was performed. Mice were injected acutely in both hemispheres with either PBS or 10 ng recombinant uncarboxylated osteocalcin."}, "[2]": {"tested_on": "mouse primary hindbrain neurons (MPHN)", "test": "Gene expression in cultured mouse primary hindbrain neurons", "type": "cell-based", "settings": "osteocalcin 3 ng/ml, 2 or 4 hours, WT and Gprc6a-/-", "procedure": "For gene expression studies, RNA was isolated from primary neurons or tissue using TRIZOL® (Invitrogen). cDNA synthesis was performed following a standard protocol from Invitrogen and qPCR analyses were done using specific quantitative PCR primers from SABiosciences (www.sabiosciences.com/RT2PCR.php).\nFor primary culture of hindbrain neurons, E14.5 embryos were obtained from matings of 129-Sv WT mice. Hindbrains were dissected out and collected in ice-cold filter sterilized HBSS buffered with 10 mM HEPES until dissection was complete, at which point they were finely chopped into 2 mm cubes, dissociated by trituration with a fire-polished Pasteur pipette and spun down at 4° C. Cells were then plated onto poly-D-lysine coated coverslips or dishes in Neurobasal medium supplemented with 2% B27, 0.25 mM Glutamax, 0.25 mM L-glutamine, penicillin G (50 U/ml), and streptomycin sulphate ([…]). Cultures were fed every 3-6 days with one half replacement medium without L-glutamine.\nTo determine if osteocalcin acts directly on neurons to modulate neurotransmitter synthesis, several types of assays were performed. First, brainstem and midbrain explants from WT and Gprc6a^−/− mice were generated. […] Third, to further confirm that osteocalcin signals in neurons of the hindbrain, calcium flux in MPHN treated with undercarboxylated or carboxylated osteocalcin (FIG. 3F) was measured. […]"}, "[3]": {"test": "Blood brain barrier crossing: subcutaneous osteocalcin infusion, content measured in blood, bone and parts of the brain by ELISA", "type": "in vivo, mouse", "settings": "subcutaneous pump, uncarboxylated osteocalcin 50 ng/hour, seven days, three-month-old Osteocalcin-/- mice", "procedure": "FIG. 3. Osteocalcin binds to neurons in the brain. (A) Measurement of the total osteocalcin in 3 month-old Osteocalcin^−/− mice infused subcutaneously for 7 days with either uncarboxylated osteocalcin (300 ng/hour, right panel) or PBS (left panel). Osteocalcin levels were measured in bone, serum, and different parts of the brain (cortex, midbrain, hypothalamus, brainstem, and cerebellum). (B) Subcutaneous infusion of leptin ([…], right panel) or PBS (left panel) for 7 days in ob/ob mice. Leptin levels were measured in serum, cortex, midbrain, hypothalamus, brainstem, and cerebellum. […]\nOsteocalcin^−/−, Gprc6a^−/−, Osteocalcin-mCherry, and Osteocalcin floxed mice have been previously described (Ducy et al., 1996, Nature 382:448-452; Oury et al., 2011, Cell 144:796-809). Mouse genotypes were determined by PCR. […] Leptin and osteocalcin content in sera and tissues were determined by ELISA.\nTo understand how this behavioral phenotype develops, whether osteocalcin crosses the blood brain barrier (BBB) was tested by installing pumps that subcutaneously delivered vehicle or uncarboxylated osteocalcin (50 ng/hour) in three-month-old Osteocalcin^−/− mice. […] Seven days later, osteocalcin and leptin content were measured in blood, bone, and in various parts of the brain in Osteocalcin−/− and ob/ob mice, respectively. […]"}}}
{"molecule": "B1", "values": [{"measurement": "% freezing on Day 1", "setting": "[1]; 10 ng injected 24 hours prior to context exposure, 3.5 month old mice", "result": "the same for both groups"}, {"measurement": "freezing behavior compared to controls, 24 hours after the initial shocks", "setting": "[1]", "result": "increased freezing behavior"}, {"measurement": "freezing behavior compared to controls, 24 hours after the initial shocks", "setting": "[1]; listed as recombinant uncarboxylated osteocalcin", "result": "increased freezing along with hyperexcitability"}, {"measurement": "GA' expression decrease in primary brainstem neuronal culture", "setting": "[2]", "result": 65, "unit": "%"}, {"measurement": "Tph2 expression in primary brainstem neuronal culture", "setting": "[2]", "result": "increased more than three-fold"}, {"measurement": "osteocalcin concentration in brainstem, thalamus and hypothalamus relative to that observed in serum", "setting": "[3]", "result": "~50", "unit": "%"}]}
